From paper PMC8558179, “The C-terminal peptide of CCL21 drastically augments CCL21 activity through the dendritic cell lymph node homing receptor CCR7 by interaction with the receptor N-terminus” (Cellular and Molecular Life Sciences: CMLS, 2021)
“Also recorded” adds a separate entry of the source.

T1: human CCR7 (Homo sapiens, UniProt P32248)
T1 construct: CCR7 contains a 24-residue long signal peptide cleaved of from the mature protein; expressed in transfected cells; host or cells: CHO cells (CHO-K1, CHO suspension WT, GAG-deficient and 5xKO GalNAc-T knockout lines), transient transfection
T1 sequence (P32248 25-378): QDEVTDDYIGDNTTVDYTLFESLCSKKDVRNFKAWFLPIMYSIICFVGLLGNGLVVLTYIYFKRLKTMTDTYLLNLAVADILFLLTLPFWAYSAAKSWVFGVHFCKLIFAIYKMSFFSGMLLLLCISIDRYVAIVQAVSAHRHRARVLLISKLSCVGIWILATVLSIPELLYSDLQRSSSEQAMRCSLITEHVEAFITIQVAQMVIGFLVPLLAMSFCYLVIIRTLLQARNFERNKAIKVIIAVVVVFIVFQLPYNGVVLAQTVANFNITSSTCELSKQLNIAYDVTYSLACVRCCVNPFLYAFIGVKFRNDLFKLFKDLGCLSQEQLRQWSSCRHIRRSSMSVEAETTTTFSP

B1: CCL21: full-length chemokine (residues 1–111), CCR7 ligand, from R&D Systems (protein, UniProt O00585 24-134, looked up)
C-C motif chemokine 21: SDGGAQDCCLKYSQRKIPAKVVRSYRKQEPSLGCSIPAILFLPRKRSQAELCADPKELWVQQLMQHLDKTPSPQKPAQGCRKDRGASKTGKKGKGSKGCKRTERSQTPKGP

Columns and labels:
human CCR7 [1] = biological target: T1, human CCR7; assay: Gαi signaling, BRET-based cAMP (CAMYEL) assay at CCR7 in CHO cells; assay type: cell-based; settings: for effect of C21TP on CCL21^Tailless activity (Gαi signaling): CCL21^Tailless (CCL21 1–79) + 10 µM TP71-111, n = 4
Procedure: Human DCs were cultured in X-vivo 15 medium with 2% human AB serum and glutamine. CHO-K1 pgsB-618 ATCC® CRL2241™ [24] and CHO-K1 cells were grown in RPMI with 10% FBS and Penicillin/Streptomycin. HS^−/− (CHO EXTL 2/3 −/−), CS^−/− (CSGALNACT 1/2^−/− CHSY1^−/−), 5xKO (GalNAc-T1, 2, 4, 7 and 10 −/−) and WT CHO suspension cells were grown in suspension in 1:1 of EX-Cell CD CHO fusion media and Balanced CD CHO growth A medium supplemented with 2% glutamine and Penicillin/Streptomycin. Cells were kept in a humidified incubator at 37 °C, 5% CO2.
(§1) For cAMP assays, adherent CHO cells were transfected using lipofectamine while suspension cells were transfected using the FectoPro method. Cells were seeded in a 6-well plate, either 500,000 (adherent cells) or 200,000 (suspension cells) cells/well. The next day the cells were transiently transfected with vectors encoding the human CCR7 and CAMYEL sensor (cAMP sensor using YFP-Epac-RLuc) in a 1:5 ratio using lipofectamine (6 µl/well) or FectoPro (4 µl/well). Lipofectamine transfections were terminated by changing to 2 ml fresh cultivation medium after 5 h, while Fectopro transfection was terminated after 3 h by adding 2.5 ml fresh cultivation medium and 2 µl FectoPro Boost reagent per well. The cells were incubated under standard cultivation conditions overnight. For β-arrestin recruitment assays, cells were transfected with CCR7 and vectors expressing a Renilla luciferase arrestin3 fusion protein and membrane-SH3-citrine protein. The cells were then resuspended in PBS w/glucose and seeded in 96-well white iso plates (~ 25,000 cells/well). Coelenterazine (bioluminescence substrate) was added to a final conc. of 5 µM. After 10 min, cells were stimulated with varying ligand concentrations for a total of 40 min. Forskolin was added to each well 5 min after ligand addition to reach a final conc. of 5 µM. The plates were kept in the dark at all times. Emission signal from Rluc and eYFP was measured using the Envision machine at 530 and 480 nm and the BRET signal determined as the ratio between (eYFP/Rluc).

human CCR7 [2] = biological target: T1, human CCR7; assay: β-arrestin recruitment, BRET-based assay at CCR7; assay type: cell-based
Procedure: as §1

CCR6 = assay: Gαi signaling, BRET cAMP assay at CCR6 in CHO cells; assay type: cell-based; settings: CCL20 + 10 µM TP71-111, CHO cells, n = 3
Procedure: For cAMP assays, adherent CHO cells were transfected using lipofectamine while suspension cells were transfected using the FectoPro method. Cells were seeded in a 6-well plate, either 500,000 (adherent cells) or 200,000 (suspension cells) cells/well. The next day the cells were transiently transfected with vectors encoding the human CCR7 and CAMYEL sensor (cAMP sensor using YFP-Epac-RLuc) in a 1:5 ratio using lipofectamine (6 µl/well) or FectoPro (4 µl/well). Lipofectamine transfections were terminated by changing to 2 ml fresh cultivation medium after 5 h, while Fectopro transfection was terminated after 3 h by adding 2.5 ml fresh cultivation medium and 2 µl FectoPro Boost reagent per well. The cells were incubated under standard cultivation conditions overnight. […] Emission signal from Rluc and eYFP was measured using the Envision machine at 530 and 480 nm and the BRET signal determined as the ratio between (eYFP/Rluc).
Supplementary file 18_2021_3930_MOESM2_ESM.png: Supplementary file2 C21TP also boosts signaling of the DC expressed chemokine receptor CCR6. […] B) CCL20-induced CCR6 Gαi –signaling in CHO cells quantified using the BRET Based cAMP assay. […] Statistical significance was calculated using two-way ANOVA with Sidek’s correction for multiple test. *P<0.05, **P <0.01, ***P <0.001, ns, not significant (PNG 878 KB)

CCL21 = settings: cited from earlier work
Source text: Another phenomenon that could explain the C21TP boosting ability would be that the peptide was able to relieve the auto-inhibition of CCL21. The peptide could potentially occupy the site on CCL21 normally contacted by the attached basic C-terminus during the auto-inhibition process, in this way preventing the formation of the locked CCL21 version. In this way the peptide could participate in unfolding of CCL21, similar to the process that is predicted to take place in the presence of polysialic acid residues. The boosting effect of C21TP on CCL19 could also be based on a direct chemokin ...

CCR7 (primary T cells) = settings: heterologous competition binding, apparent affinity; cited from earlier work
Source text: In the absence of peptide, CCL19 and CCL21 contact CCR7 in different manners. The interaction of CCL21 depends on residues in the top of TM-3, -4 and -5 that are not important for CCL19 interaction with CCR7. The binding of these two chemokines induce different structural changes in CCR7 to disrupt old and create new hydrogen bonds. CCL21 binding to CCR7 is believed to involve movements within the majority of helical domains (TM2, -3, -4, -5, -6, and -7), whereas the changes induced by CCL19 are restricted to regions of TM3, -5, and -6 [37]. The conformational changes in CCR7 ind ...

Collagen I = settings: cited from earlier work
Source text: In the current study we have used Collagen I in the 3D chemotaxis assays. Collagen I has low affinity for CCL21 [31]. Matrigel on the other hand binds CCL21 well. As CCL21 is immobilized in vivo [20], to evaluate the full effect of C21TP on dendritic cell migration, experiments using Matrigel would need to be conducted. Such assay could reveal if C21TP affect the interaction between CCR7 and immobilized CCL21 where the basic tail is participating in surface tethering and potentially unable to engage in steric hindrance of CCR7. Again, since boosting of in vitro signaling occurred in both p ...

Molecule	fold reduction of C21TP boosting effect on CCL21 signaling in 5xKO vs WT (human CCR7 [1]; CCL21 + 10 µM TP71-111, CHO 5xKO vs WT) [fold]	effect of C21TP on CCL21^Tailless activity (Gαi signaling) (human CCR7 [1])	effect of C21TP on CCL21^Tailless activity (Gαi signaling) (human CCR7 [1]; listed as C21TP)	boosting of CCL21-induced CCR7 signaling in GAG KO cells (human CCR7 [1]; CHO GAG KO (pgsB 618) vs WT, 10 µM TP71-111, n = 3)	boosting of CCL21-induced CCR7 signaling in GAG-deficient cells (human CCR7 [1]; CHO HS−/−, CS−/− and GAG KO (pgsB 618) cells, 10 µM TP71-111, n = 3)	boosting of CCL19-induced CCR7 signaling in GAG-deficient cells (human CCR7 [1]; CHO HS−/−, CS−/−, GAG KO cells, 10 µM TP71-111, n = 3, listed as C21TP)	fold boost of CCL21 signaling activity via CCR7 (human CCR7 [1]; in the presence of C21TP)	effect of C21TP on CCL21^Tailless β-arrestin recruitment (human CCR7 [2]; CCL21^Tailless (CCL21 1–79) + 10 µM TP71-111, n = 4)	boosting of CCL20-induced signaling at CCR6 (CCR6)	boosting of CCL20-induced signaling at CCR6 (CCR6; listed as C21TP)	pEC50, Gαi signaling, chemokine alone (human CCR7 [1]; no peptide, CHO cells, forskolin 5 µM, n = 4)	CCL21 self-association (CCL21)	pEC50, β-arrestin recruitment, chemokine alone (human CCR7 [2]; no peptide, n = 4)	fold lower binding affinity of CCL21 in primary T cells (CCR7 (primary T cells))	affinity of Collagen I for CCL21 (Collagen I)
TP71-111: free CCL21 C-terminal peptide, residues 71–111 (41 amino acids, positively charged) (PSPQKPAQGCRKDRGASKTGKKGKGSKGCKRTERSQTPKGP; UniProt O00585 94-134, looked up, fragment)	25	not improved	did not affect CCL21^Tailless potency	tendency that boosting by C21TP (TP71-111) was increased	In none of the GAG-deficient cells did we measure any decrease	similarly unaffected by the lack of GAGs; also recorded: independent of cell GAG status	~ 100 fold	small but significant decrease	very similar to the boosting observed with CCL19 acting at CCR7	also boosts CCL20 signaling via CCR6					
B1											6.46	weak and only detectable at mM concentrations	undetectable	sixfold lower binding affinity	low affinity
